The values below are quoted from earlier work in patent US6759384B1, “Factor Xa inhibitors” (Aventis Pharmaceuticals Inc., priority 1994, dated 2004).

The term Ki denotes the equilibrium dissociation constant of an inhibitor or competing ligand from its target.

This data set has as its target factor Xa. To be noted: background section.

B1: ATS: antistasin, protein inhibitor of factor Xa isolated from the leech Haementerin officinalis, 119 amino acids (protein, UniProt P15358 18-136, looked up)
Antistasin: QGPFGPGCEEAGCPEGSACNIITDRCTCSGVRCRMHCPHGFQRSRYGCEFCKCRLEPMKATCDISECPEGMMCSRLTNKCDCKIDINCRKTCPNGLKRDKLGCEYCECRPKRKLIPRLS
For B1, the Ki was 0.05 nM.
